Measurements from PMC7487859.

Columns and labels:
[1] = test system: PDGFRbeta (mouse, on 4T1 cells) (Mus musculus); experiment: streptavidin-biotin cell binding assay; settings: apparent Kd on intact 4T1 cells; Scr background subtracted; 2'-fluoro pyrimidines; 4T1 cells (2x10^4/well), 10-500 nM aptamer, 10 min, room temperature, BlockAid blocking solution with 1 mg/ml yeast tRNA and 1 mg/ml salmon sperm DNA; salt and …
[2] = test system: PDGFRbeta (human, on MDA-MB-231 cells) (Homo sapiens); experiment: cell binding assay; settings: intact MDA-MB-231 cells; 2'-fluoro pyrimidines; 10-500 nM aptamer, 10 min, room temperature, BlockAid blocking solution with 1 mg/ml yeast tRNA and 1 mg/ml salmon sperm DNA; salt; cited from earlier work

**Q.** With Gint4.T as the substance, how does the Kd [1] read?
**A.** 0.0768 µM

**Q.** With Gint4.T (as in cited ref 31) as the substance, how does the Kd [2] read?
**A.** 0.0575 µM
